Test results as given in patent US20260000736A1, “PURIFIED LACTOFERRIN COMPOSITIONS AND METHODS OF USE” (Lactea Therapeutics LLC, priority 2023, published 2026).

What was measured:
[1] = system: Bifidobacterium longum; experiment: Planktonic growth in culture, OD600; format: cell-based; details: 10-fold serial dilution of Lf, 18 hours
[2] = system: Enterococcus faecalis; experiment: Biofilm formation, crystal violet assay; format: cell-based; details: 24 hours of growth
[3] = system: cow with a large infected chronic wound on its leg; experiment: Case study of a cow with a large infected chronic wound; format: in vivo; details: three daily treatments as freeze dried powder into the wound bed
Procedure: Lactea Lactoferrin (Lactea-Lf) was produced as described in the above examples and freeze-dried by lyophilization into a powder. Lactea-Lf was then administered as the freeze-dried powder in a variety of animal wound contexts.
For these daily treatments, Lf was applied once on each day to cover the open wound area.

[4] = system: lactoperoxidase (LPO); experiment: Enzymatic colorimetric assay for lactoperoxidase (LPO) activity; format: biochemical; details: colorimetric peroxidase substrate
Text: An enzymatic assay for lactoperoxidase (LPO) activity was developed utilizing a molecule which in the presence of peroxidase activity turns a blue color.

[5] = DSC of additional batches, ratio of apo to holo-Lactoferrin; format: physicochemical; details: 5 mg/mL, 30° C. to 100° C. range
Procedure: Additional batches of Lactea-Lf as described in the above examples and the relative ratio of apo to holo-Lactoferrin was assessed by Differential Scanning Calorimetry (DSC). Lactoferrin samples were loaded at 5 mg/mL into a NanoDSC (TI Instruments) and measured in the 30° C. to 100° C. range. […] It is likely that these peaks are smaller as the sample is highly impure or contains already denatured product.

B1: Lactea-Lf: bovine lactoferrin purified from raw untreated milk by cation exchange chromatography and filtration according to Example 1 (protein)
chain: APRKNVRWCTISQPEWFKCRRWQWRMKKLGAPSITCVRRAFALECIRAIAEKKADAVTLDGGMVFEAGRDPYKLRPVAAEIYGTKESPQTHYYAVAVVKKGSNFQLDQLQGRKSCHTGLGRSAGWVIPMGILRPYLSWTESLEPLQGAVAKFFSASCVPCIDRQAYPNLCQLCKGEGENQCACSSREPYFGYSGAFKCLQDGAGDVAFVKETTVFENLPEKADRDQYELLCLNNSRAPVDAFKECHLAQVPSHAVVARSVDGKEDLIWKLLSKAQEKFGKNKSRSFQLFGSPPGQRDLLFKDSALGFLRIPSKVDSALYLGSRYLTTLKNLRETAEEVKARYTRVVWCAVGPEEQKKCQQWSQQSGQNVTCATASTTDDCIVLVLKGEADALNLDGGYIYTAGKCGLVPVLAENRKTSKYSSLDCVLRPTEGYLAVAVVKKANEGLTWNSLKDKKSCHTAVDRTAGWNIPMGLIVNQTGSCAFDEFFSQSCAPGRDPKSRLCALCAGDDQGLDKCVPNSKEKYYGYTGAFRCLAEDVGDVAFVKNDTVWENTNGESTADWAKNLNREDFRLLCLDGTRKPVTEAQSCHLAVAPNHAVVSRSDRAAHVKQVLLHQQALFGKNGKNCPDKFCLFKSETKNLLFNDNTECLAKLGGRPTYEEYLGTEYVTAIANLKKCSTSPLLEACAFLTR
Inhibition of Planktonic Growth [1]: None
Inhibition of Biofilm Formation [2]: Strong (Lf was deemed to have a strong activity if biofilms were eliminated or significantly reduced to less than 90% less than no treatment at concentrations of 10 mg/mL or less after 24 hours of growth)
healing of infected chronic wound [3]: the wound was completely healed after it was checked after three weeks
LPO enzymatic activity (blue color reaction) [4]: neither detected by M/S or by the enzymatic assay
denaturation peak corresponding to apo-Lf [5]: ~60 °C
denaturation peak corresponding to holo-Lf [5]: 90 °C
relative ratio of apo to holo-Lactoferrin, DSC peak pattern [5]: heavily skewed towards apo-Lf
